Measurements from patent US20150351390A1, “COMPOSITIONS AND METHODS FOR AUXIN-ANALOG CONJUGATION” (PIONEER HI-BRED INTERNATIONAL, INC., priority 2012, published 2015).

B1: ZmACN32133: GH3 protein, accession ACN32133 (protein)
chain: MAPTTATAAAVGTKATALGVAACERDVEKLEFIEDKTRNFDAEQVRVLAEILARNNGAEYLRRHGMEGRTDRLAFKACVPVVTYEDLRPEIERIANGDRSNIISSHPITEFLTSSGTSAGERKLMPTIEDELNRRQMLYSLLMPVMNLYVPGLDKGKGLYFLFIKSETKTPGGLPARPVLTSYYKSDHFKHRPYDPYNVYTSPTAAILCTDSFQSMYSQMLCGLVARAEVLRVGAVFASGLLRAIRFLQLHWQELAHDLRTGTLSAKVTEPSIREAVAEVLRPDAGLADLVEAECGKESWEGIITRVWPNTKYLDVIVTGAMAQYIPTLKYYSGGLPMACTMYASSECYFGLNLRPMCDPSEVSYTIMPNMGYFELLPHDPDAVPPSRDDPPPRLLDLADAEVGRDYELVITTYAGLCRYRVGDILHVTGFHNAAPQFRFVRRKNVLLSVDSDKTDEAELQAAVERAARLLAPYDAAIAEYTSQADATTIPGHYVVYWELMVREGGASPDAAVFERCCLEMEEALNAVYRQGRNGDAIGPLEIRVVRGGTFEEVMDYAISRGASINQYKAPRCVSFGPIIELLNSRVVSSHFSPACPTYSPHKK
modifications: Zea mays
B2: SmXP_002973755: GH3 protein, accession XP_002973755 (protein, listed as Selaginella moellendorffii)
chain: MNLEHKEREKQALQFIEKVTSEAAEVQSAVLSAILERNAHTEYLKRHGLNGRTDKTSFRQCLPVITYEDLEPEIQRIANGDTSPILSAHPISEFLTSSGTSAGQRKLMPTISEEFERRCLLYSLLMPVMNQYLPGLDQGKGMYLFFIKSEAKTPGGLLARPVLTSYYKSRYFTERPYDPCNVYTSPNETVLCPDAHQSMYCQLLCGLLQRHEVLRMGAVFASGFLRAIRFLETHWRELCDDIRAGGLNELVVDAAARRAVLALMPRPDPALADDIAEQCRKESWAGIIARLWPNTKYIDVIVTGTMAQYIPTLDYYSGGLPLVCTMYASSECYFGINLQPLCPPSEVSYTLLPNMAYFEFLPIKPKSGKSKAPRVPDPSELVELVDVKMGHEYELVITTYAGLCRYRVGDILRVTGFHNSAPQFAFVCRKNVVLSIDSDKTGEEDLAKAVRSATAGIESSYGARLIEYTSYADTTTIPGHYVLFWELRSSSPIPKDVLEECCLAIEESLDSVYRQGRVSDRSIGPLEIKVVKPGTFDQLMDYALSRGASINQYKTPRCVKFTPIVELLNARVVSSYFSPRLPKWSPVRPQWANSNGVH
B3: AIGH3-1: GH3 protein, accession XP_002885948 (protein, listed as Arabidopsis lyrata)
chain: MAVDSNLSSPLGPPACEKDAKALRFIEEMTRNADTVQENLLAEILARNANTEYLRRFNLGGATDRDTFKTKIPVITYEDLQPEIQRIADGDRSPILSSHPISEFLTSSGTSAGERKLMPTIREELDRRQLLYSLLMPVMNLYVPGLDKGKGMYFLFVKSESKTPGGLPARPVLTSYYKSEHFRSRPYDPYNVYTSPNEAILCPDSFQSMYTQMLCGLLDRLSVLRVGAVFASGLLRAIRFLQLHWSRFANDIELGCLDSEITDPSIRQCMSGILKPDPVLAEFIRRECKSDNWERIITRIWPNTKYLDVIVTGAMAQYIPTLEYYSGGLPMACTMYASSECYFGLNLNPMSKPSEVSYTIMPNMAYFEFIPLGGTKAVELVDVKIGKEYELVVTTYAGLCRYRVGDILRVTGFHNSAPQFHFVRRKNVLLSIDSDKTDESELQKAVENASKILHEECGSRVAEYTSYADTSTIPGHYVLYWELLVRDGARQPSHETITRCCLEMEESLNSVYRQSRVADNSVGPLEIRVVRNGTFEELMDYAISRGASINQYKVPRCVNFTPIVELLDSRVVSAHFSPSLPHWTPERRRR
B4: OsGH3-13: GH3 protein, accession EAY81150 (protein, listed as Oryza sativa)
chain: MTSTSSENALDHDHDHDASSPAPATATAAALPPMIPACDPHDGPACLELIEVLTTRAAAVQRRVLAEVLAMNTGTDYLRRFLGDEVAAAAGGEDELAAAFKERVPVVEYEDVKPYIERIANGAPSSLISSKPITELLTSSGTSGGQPKLMPATEEELDRKTFLYNLLVPVMNKYVEGLDEGRGMYLLFVKPEITTASGMVARPVLTSYYKSRHFRRRPDSPYTRYTSPDAAILCPDSRQSMYAQLLCGLARRGEVLRVGAVFASAFLRAVKFLEGHWRALCADIRAGRADPAVVTDAACRGAVDAVLAARADPDLADAIAAECGGASWRGIVRRLWPRTKYIDVIVTGSMAQYIPLLEFYGGGLPLVSTMYASSESYFGINLRPLDPPEEVVYTLLPNMCYYEFIKVEKDGDGEKVRDGEVVDLVGVEVGAYYELVVTTFTGLYRYRVGDILQVAGFHNAAPQFRFVHRRNVVLSVDTDKTSEDDLLRAVTAAKPLLDPLSCVLAEYTAYADTSSIPGHYVLFWELTPSPSPPPPPCHDDANDAADIGEDKDKVAHVMAACCAAVEAGLDSVYRRCRSRDRSIGPLEIRVVAPGAFDALMDMCVSHGSSVNQYKTPRCIKHPDAIAVLEQRVVGRFFSDAVPHWEPLKVDGAAAAPATGSDQ
B5: ZmACL54563: GH3 protein, accession ACL54563 (protein)
chain: MPEAPVVTMRDTAAAAPPATHRDLLEYIERVTAGAAQVQRRVLSEILAQNAPAEYLRRLGVSGAAPGAVEAFRRAAPLVTYEDILPDVLRIANGDTSPILSGKPIREFLTSSGTSGGERKLMPAIADEMDRRSLLYSLLMPVMSQAVPGLDRGRCMYLYFVKAGSRTPGGHPARPVLTSFYRSRHFLERPHDPYTVHTSPDEAVLCVDAYQSMYAQLLCGLVHRADVLRVGAVFASGFLRAIRFLEKHWQRLCRDLRRGALGAEVTDRSVRAAVARVLRADPALADAVEAECARPSWQGIIRRVWPGTKYIDVIVTGAMAQYIPTLEFYGGGLPLTCTMYASSESYFGINLNPMCKPSEVAYTLIPTMCYFEFLPLPQPGPGGTDDADPDHRDLVDLVDVKLGHEYELVVTTYSGLYRYRVGDVLRVAGFKNQAPMFKFLRRKNVVLSIDSDKTDEAELHAAVSGAVQHLAPFGASLVEYTSYADAGTIPGHYVLFWELRLRAGDVPVPVPASVFEDCCLAVEEALNSVYRQGRAADRSIGPLEIRVVSDGTFDRLMDYALARGASINQYKVPRCVHPGPVVELLDGRVQASYVSPKCPKWSPGGGKQWSSDAAAKKPAAAAGSNNGGGAVVA
modifications: Zea mays

Experiments:
[1] = LC-MS assay of GH3 conjugation of 2,4-D with Asp or Glu; assay type: biochemical; conditions: 5 mM 2,4-D substrate; for kcat (hrs−1) 2,4-D-Asp: conjugation of 2,4-D with Asp by recombinant GH3 protein, 2,4-D-Asp product by LC-MS; for kcat (hrs−1) 2,4-D-Glu: conjugation of 2,4-D with Glu by recombinant GH3 protein, 2,4-D-Glu product by LC-MS
Summary of the method: (§1)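 N-His-tagged GH3 homologs expressed in E. coli C41(DE3) and Ni-NTA purified (44 to 164 μg/mL) were incubated 3 hours at 30° C. in 20 mM Tris-HCl pH 8.0, 5 mM MgCl2, 1 mM DTT with 5 mM each of auxin, ATP and Asp or Glu. Conjugates were quantified by LC-MS against standards.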

[2] = LC-MS assay of GH3 conjugation of IAA with Asp or Glu; assay type: biochemical; conditions: for kcat (hrs−1) IAA-Asp: conjugation of IAA with Asp by recombinant GH3 protein, IAA-Asp product by LC-MS; for kcat (hrs−1) IAA-Glu: conjugation of IAA with Glu by recombinant GH3 protein, IAA-Glu product by LC-MS
Summary of the method: as §1

Row | Molecule | kcat (hrs−1) 2,4-D-Asp [1] [h⁻¹] | kcat (hrs−1) 2,4-D-Glu [1] [h⁻¹] | kcat (hrs−1) IAA-Asp [2] [h⁻¹] | kcat (hrs−1) IAA-Glu [2] [h⁻¹]
1 | B1 | 0.602 | 0.241 | 876.059 | 83.547
2 | B2 | 1.076 | 0.431 | 220.320 | 9.285
3 | B3 | 2.057 | 0.525 | 436.828 | 14.961
4 | B4 | 0.639 | 5.237 | 10.812 | 494.321
5 | B5 | 3.255 | 0.993 | 522.629 | 26.015
